Assay [1] deals with T1, mouse Ang2 (Accession # NP-031452) (R&D Systems) (mouse, UniProt O35608 19-496).
T1 construct: Bought protein coated on the ELISA plate; also called mAng2
T1 sequence (looked up): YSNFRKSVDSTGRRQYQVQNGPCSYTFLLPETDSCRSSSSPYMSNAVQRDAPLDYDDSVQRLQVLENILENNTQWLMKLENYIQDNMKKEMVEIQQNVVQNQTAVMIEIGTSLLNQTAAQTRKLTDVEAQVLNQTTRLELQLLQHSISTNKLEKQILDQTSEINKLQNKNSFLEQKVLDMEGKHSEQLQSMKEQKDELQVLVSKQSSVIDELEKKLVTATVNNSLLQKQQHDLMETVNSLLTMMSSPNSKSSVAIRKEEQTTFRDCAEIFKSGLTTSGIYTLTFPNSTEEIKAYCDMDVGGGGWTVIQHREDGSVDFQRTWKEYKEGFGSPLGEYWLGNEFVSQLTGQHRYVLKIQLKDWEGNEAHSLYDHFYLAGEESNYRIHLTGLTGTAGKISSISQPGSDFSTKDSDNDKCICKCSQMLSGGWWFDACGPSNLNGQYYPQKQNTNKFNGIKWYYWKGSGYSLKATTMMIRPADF
The assay is described as follows: ELISA on coated mouse Ang2.

Another assay concerns the target T2, Ang2 RBD mutant Y460 (human, UniProt O15123 276-496).
T2 chain: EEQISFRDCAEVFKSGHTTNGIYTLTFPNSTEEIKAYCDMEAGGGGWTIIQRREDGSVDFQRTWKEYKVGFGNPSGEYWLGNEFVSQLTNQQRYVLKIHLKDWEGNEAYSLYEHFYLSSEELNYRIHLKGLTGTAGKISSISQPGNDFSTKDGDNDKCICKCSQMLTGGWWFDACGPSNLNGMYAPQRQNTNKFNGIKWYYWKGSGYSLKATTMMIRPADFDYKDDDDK
Description: ELISA; antibody coated, FLAG-tagged RBD mutant, anti-FLAG-HRP detection.

In another assay the target is T3, Ang2 RBD mutant S417 (human, UniProt O15123 276-496).
T3 chain: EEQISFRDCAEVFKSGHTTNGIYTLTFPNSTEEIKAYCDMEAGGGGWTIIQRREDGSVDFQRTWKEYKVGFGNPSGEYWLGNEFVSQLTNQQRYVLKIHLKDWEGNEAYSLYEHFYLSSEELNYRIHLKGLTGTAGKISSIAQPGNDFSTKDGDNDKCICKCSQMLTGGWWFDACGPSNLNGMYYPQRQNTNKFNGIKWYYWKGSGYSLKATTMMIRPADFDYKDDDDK
The description is as above.

In a further assay the target is T4, Ang2 RBD mutant P419 (human, UniProt O15123 276-496).
T4 chain: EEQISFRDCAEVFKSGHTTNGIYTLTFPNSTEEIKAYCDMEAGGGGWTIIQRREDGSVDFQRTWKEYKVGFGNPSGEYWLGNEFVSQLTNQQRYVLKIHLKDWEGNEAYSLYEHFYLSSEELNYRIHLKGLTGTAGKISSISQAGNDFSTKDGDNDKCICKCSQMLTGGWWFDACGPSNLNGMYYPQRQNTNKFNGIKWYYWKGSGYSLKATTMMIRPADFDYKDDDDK
The assay is described as above.

In the next assay the target is T5, Ang2 RBD mutant N467 (human, UniProt O15123 276-496).
T5 chain: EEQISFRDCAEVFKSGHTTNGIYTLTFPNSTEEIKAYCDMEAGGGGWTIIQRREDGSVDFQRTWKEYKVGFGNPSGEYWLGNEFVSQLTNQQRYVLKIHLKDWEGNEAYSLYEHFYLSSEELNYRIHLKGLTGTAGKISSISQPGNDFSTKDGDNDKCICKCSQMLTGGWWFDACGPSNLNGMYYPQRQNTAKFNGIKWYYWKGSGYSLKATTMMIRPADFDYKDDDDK
Described as above.

For another assay, the target named is T6, Ang2 RBD mutant P452 (human, UniProt O15123 276-496).
T6 chain: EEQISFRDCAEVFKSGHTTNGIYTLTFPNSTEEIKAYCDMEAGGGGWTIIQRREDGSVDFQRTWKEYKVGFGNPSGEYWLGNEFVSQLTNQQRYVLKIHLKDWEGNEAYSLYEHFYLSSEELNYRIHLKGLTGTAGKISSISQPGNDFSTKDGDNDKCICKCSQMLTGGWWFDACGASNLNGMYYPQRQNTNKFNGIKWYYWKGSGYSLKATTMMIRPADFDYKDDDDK
Described as above.

In another assay the target is T7, Ang2 RBD mutant Q418 (human, UniProt O15123 276-496).
T7 chain: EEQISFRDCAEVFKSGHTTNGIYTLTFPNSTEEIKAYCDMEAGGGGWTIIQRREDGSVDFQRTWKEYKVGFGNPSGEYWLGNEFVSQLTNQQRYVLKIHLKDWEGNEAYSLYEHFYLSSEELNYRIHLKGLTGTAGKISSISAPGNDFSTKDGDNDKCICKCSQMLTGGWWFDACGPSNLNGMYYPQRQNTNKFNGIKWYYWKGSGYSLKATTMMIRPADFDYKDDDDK
The assay is described as above.

The target of assay [2] is Ang2 RBD mutant A449 (human) (UniProt O15123). The assay is described as above.

B1: SAIT-ANG2-AB-m1A10 (antibody, V domains shown)
VH: QVQLQQSGAELMKPGASVKISCKATDYTFSSYWLEWLIQRPGHGLEWIGEILPGSGSTNYNEKFRGKATFTEDTSSNTAYMQLSSLTSEDSAVYYCARGNHNSYYYAMDYWGQGTSVTVSS
VL: DIVLTQSPASLAVSLGQRATISCRASESVDSYGNSFMHWYQQKPGQPPKLLIYRASNLDSGIPARFSGSGSRTDFTLTINPVEADDVATYYCQQSNEDPLTFGAGTKLELK
notes: also called hybridoma KCLRF-BP-00306
As to B1, in assay [1], the binding result is recorded as “no binding”. Moreover, the “Binding (%) (mutant Ang2 / native Ang2)” value with Ang2 RBD mutant Y460 stood at 8.3%; in the assay with Ang2 RBD mutant S417, 100%; in the assay with Ang2 RBD mutant P419 it was 102%; in the assay with Ang2 RBD mutant N467, 79.4%; with Ang2 RBD mutant P452, 105%; with Ang2 RBD mutant Q418 it was 97.2%. Besides, the Binding (%) (mutant Ang2 / native Ang2) in assay [2] was 95.6%.

These data come from US20150210761A1 (SAMSUNG ELECTRONICS, published 2015).
